Each block holds one binder with its values, some of them ahead of it. Ends that are not written are not given here. Me3 = tri-methylated lysine; Me2 = di-methylated lysine
Key:
[1] = biological target: T1, His-ORCA (baculovirus) (human, UniProt Q9UFC0 1-647); assay: pull-down; H3 (1-15) peptides coupled to SulphoLink (iodoalkyl agarose) resin, incubated with baculovirally purified His-ORCA 2 hr at RT in PK 150 buffer (150 mM KCl, 0.02% NP-40); immunoblot; details: both partners purified
T1 construct: ORCA/LRWD1 in pFastBac HT-B; also called purified His-tagged-ORCA; baculovirally purified His-ORCA; source: Hi5 insect cells (baculovirus), nuclear extract, 45% ammonium sulfate precipitation; called 'baculovirally purified'
T1 sequence (looked up): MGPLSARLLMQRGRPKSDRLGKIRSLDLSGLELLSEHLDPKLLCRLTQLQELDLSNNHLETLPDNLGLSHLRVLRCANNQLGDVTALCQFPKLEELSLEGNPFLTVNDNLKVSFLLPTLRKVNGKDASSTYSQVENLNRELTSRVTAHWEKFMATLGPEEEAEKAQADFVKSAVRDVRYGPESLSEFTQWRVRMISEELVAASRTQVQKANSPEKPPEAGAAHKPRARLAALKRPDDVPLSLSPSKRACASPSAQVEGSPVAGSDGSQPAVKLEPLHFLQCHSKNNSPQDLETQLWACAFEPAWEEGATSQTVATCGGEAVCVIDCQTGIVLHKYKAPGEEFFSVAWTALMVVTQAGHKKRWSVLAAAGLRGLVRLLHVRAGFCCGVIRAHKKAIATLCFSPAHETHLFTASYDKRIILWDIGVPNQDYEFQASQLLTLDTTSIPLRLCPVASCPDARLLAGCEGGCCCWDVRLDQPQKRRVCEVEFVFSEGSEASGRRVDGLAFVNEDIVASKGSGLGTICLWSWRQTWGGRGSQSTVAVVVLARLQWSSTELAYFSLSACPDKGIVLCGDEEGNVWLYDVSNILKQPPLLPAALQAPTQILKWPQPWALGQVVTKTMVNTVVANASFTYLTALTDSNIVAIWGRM

[2] = biological target: T2, T7-ORCA (full-length) (human, UniProt Q9UFC0 1-647); assay: single-molecule pull-down (SiMPull); biotinylated T7 antibody on NeutrAvidin/PEG quartz slides; U2OS lysates co-expressing T7-ORCA and one YFP protein; TIRF, YFP photobleaching steps; biotinylated HA antibody as control; details: partners not purified
T2 construct: ORCA/LRWD1, full length; also called T7-tagged ORCA; full-length T7-ORCA; source: U2OS, transiently transfected, in lysate
T2 sequence (looked up): T1 sequence (looked up)

- binding result [1]: binds
B1: Histone H3 (1–15) peptide, K9 tri-methylated, N-terminal cysteine (peptide)
peptide: CARTKQTARK(Me3)STGGKA
notes: a cysteine at the N terminus, for coupling to the resin; human histone H3, amino acids 1-15; also called H3K9me3 peptide; source: synthetic peptide (Biomer technology), coupled to SulphoLink resin

- binding result [1]: binds
B2: Histone H3 (1–15) peptide, K9 mono-methylated, N-terminal cysteine (peptide)
peptide: CARTKQTARK(Me)STGGKA
notes: a cysteine at the N terminus, for coupling to the resin; human histone H3, amino acids 1-15; also called H3K9me1 peptide; source: synthetic peptide (Biomer technology), coupled to SulphoLink resin

- binding result [1]: binds
B3: Histone H3 (1–15) peptide, K9 di-methylated, N-terminal cysteine (peptide)
peptide: CARTKQTARK(Me2)STGGKA
notes: a cysteine at the N terminus, for coupling to the resin; human histone H3, amino acids 1-15; also called H3K9me2 peptide; source: synthetic peptide (Biomer technology), coupled to SulphoLink resin

- stoichiometry N [2]: 1 Suv39H1 per ORCA
B4: YFP-Suv39H1 (enzyme, UniProt O43463 1-412, looked up)
chain: MAENLKGCSVCCKSSWNQLQDLCRLAKLSCPALGISKRNLYDFEVEYLCDYKKIREQEYYLVKWRGYPDSESTWEPRQNLKCVRILKQFHKDLERELLRRHHRSKTPRHLDPSLANYLVQKAKQRRALRRWEQELNAKRSHLGRITVENEVDLDGPPRAFVYINEYRVGEGITLNQVAVGCECQDCLWAPTGGCCPGASLHKFAYNDQGQVRLRAGLPIYECNSRCRCGYDCPNRVVQKGIRYDLCIFRTDDGRGWGVRTLEKIRKNSFVMEYVGEIITSEEAERRGQIYDRQGATYLFDLDYVEDVYTVDAAYYGNISHFVNHSCDPNLQVYNVFIDNLDERLPRIAFFATRTIRAGEELTFDYNMQVDPVDMESTRMDSNFGLAGLPGSPKKRVRIECKCGTESCRKYLF
notes: Suv39H1; human clones in pEYFP and pSV2-YFP-mSuv39H1 are both named in the methods; source: U2OS, transiently transfected, in lysate

- stoichiometry N [2]: 1 Orc1 per ORCA
B5: YFP-ORC1 (natural protein, UniProt Q13415 1-861, looked up)
chain: MAHYPTRLKTRKTYSWVGRPLLDRKLHYQTYREMCVKTEGCSTEIHIQIGQFVLIEGDDDENPYVAKLLELFEDDSDPPPKKRARVQWFVRFCEVPACKRHLLGRKPGAQEIFWYDYPACDSNINAETIIGLVRVIPLAPKDVVPTNLKNEKTLFVKLSWNEKKFRPLSSELFAELNKPQESAAKCQKPVRAKSKSAESPSWTPAEHVAKRIESRHSASKSRQTPTHPLTPRARKRLELGNLGNPQMSQQTSCASLDSPGRIKRKVAFSEITSPSKRSQPDKLQTLSPALKAPEKTRETGLSYTEDDKKASPEHRIILRTRIAASKTIDIREERTLTPISGGQRSSVVPSVILKPENIKKRDAKEAKAQNEATSTPHRIRRKSSVLTMNRIRQQLRFLGNSKSDQEEKEILPAAEISDSSSDEEEASTPPLPRRAPRTVSRNLRSSLKSSLHTLTKVPKKSLKPRTPRCAAPQIRSRSLAAQEPASVLEEARLRLHVSAVPESLPCREQEFQDIYNFVESKLLDHTGGCMYISGVPGTGKTATVHEVIRCLQQAAQANDVPPFQYIEVNGMKLTEPHQVYVQILQKLTGQKATANHAAELLAKQFCTRGSPQETTVLLVDELDLLWTHKQDIMYNLFDWPTHKEARLVVLAIANTMDLPERIMMNRVSSRLGLTRMCFQPYTYSQLQQILRSRLKHLKAFEDDAIQLVARKVAALSGDARRCLDICRRATEICEFSQQKPDSPGLVTIAHSMEAVDEMFSSSYITAIKNSSVLEQSFLRAILAEFRRSGLEEATFQQIYSQHVALCRMEGLPYPTMSETMAVCSHLGSCRLLLVEPSRNDLLLRVRLNVSQDDVLYALKDE
notes: origin recognition complex subunit 1; source: U2OS, transiently transfected, in lysate
